Source: paper PMC2714540

Target: Smurf1 (UniProt Q9HCE7)
Assay: binding to Smurf1, pull-down format inferred
Settings: reference: Tal210-605 wild type; sites S425

With “talin (talin head, TH) 210-605 (from UniProt P26039) Tal210-605 S425A” as the substance, how does the “binding against the reference” value read?
Its value is “stronger”.
